From patent US20230212549A1, “COMPOUNDS COMPRISING A […] LIGAND AND USE THEREOF” (priority 2021, published 2023) come the findings set out here.

Bridge positions count the residues as written; N and C are the ends.

Assay [1] concerns the target 5-HT2B (h) (human), P41595. The assay can be described thus: radioligand displacement (agonist radioligand), 10 µM. To be noted: remark: other sources report otherwise. In general terms: In a radioligand displacement assay an active substance lowers the binding of a labelled ligand.
The target in a further assay is BZD (central). The description is as above.
Assay [2] has as its target T1, CCK1 (CCKA) (h) (human), P32238.
T1 chain: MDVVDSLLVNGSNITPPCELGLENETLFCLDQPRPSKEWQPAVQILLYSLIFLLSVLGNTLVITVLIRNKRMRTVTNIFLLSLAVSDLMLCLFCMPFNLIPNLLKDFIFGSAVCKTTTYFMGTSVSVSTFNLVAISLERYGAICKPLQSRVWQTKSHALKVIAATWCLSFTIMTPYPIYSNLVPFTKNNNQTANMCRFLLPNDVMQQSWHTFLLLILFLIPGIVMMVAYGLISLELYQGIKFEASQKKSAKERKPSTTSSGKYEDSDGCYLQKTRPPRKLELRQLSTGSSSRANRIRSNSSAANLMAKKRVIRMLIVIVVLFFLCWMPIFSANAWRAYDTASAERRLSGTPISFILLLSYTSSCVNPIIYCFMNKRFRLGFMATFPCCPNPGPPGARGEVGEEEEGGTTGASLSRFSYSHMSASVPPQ
The assay is described as above. To be noted: remark: other sources report otherwise.

The target of a further assay is V1a (h) (human), P37288. The description is as above. The settings on record: remark: other sources report otherwise.
Chain of V1a (h) (human), P37288 (P37288 whole entry): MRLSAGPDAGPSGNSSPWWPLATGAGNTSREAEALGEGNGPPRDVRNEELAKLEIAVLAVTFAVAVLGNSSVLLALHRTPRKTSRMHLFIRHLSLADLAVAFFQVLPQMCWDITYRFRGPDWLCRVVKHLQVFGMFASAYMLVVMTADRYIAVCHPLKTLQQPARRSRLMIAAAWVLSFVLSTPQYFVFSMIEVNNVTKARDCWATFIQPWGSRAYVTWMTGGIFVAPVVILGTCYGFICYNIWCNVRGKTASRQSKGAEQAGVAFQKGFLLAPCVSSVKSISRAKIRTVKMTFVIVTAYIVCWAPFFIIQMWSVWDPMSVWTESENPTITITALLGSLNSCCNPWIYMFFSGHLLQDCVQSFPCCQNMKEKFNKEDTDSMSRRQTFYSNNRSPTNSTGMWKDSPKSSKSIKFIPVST
Assay [3] concerns the target 5-HT1B(h) (human), P28222. As to the kind of experiment: radioligand displacement (antagonist radioligand), 10 µM. To be noted: remark: other sources report otherwise.
The target of assay [4] is Ca2+ channel (L, dihydropyridine site). The assay is described as above.
The next assay concerns the target H2 (h) (human), P25021. The assay is described as above. The settings on record: remark: other sources report otherwise.
The target of another assay is KV channel. The description is as above.
Another assay has as its target T2, M2 (h) (human), P08172.
T2 chain: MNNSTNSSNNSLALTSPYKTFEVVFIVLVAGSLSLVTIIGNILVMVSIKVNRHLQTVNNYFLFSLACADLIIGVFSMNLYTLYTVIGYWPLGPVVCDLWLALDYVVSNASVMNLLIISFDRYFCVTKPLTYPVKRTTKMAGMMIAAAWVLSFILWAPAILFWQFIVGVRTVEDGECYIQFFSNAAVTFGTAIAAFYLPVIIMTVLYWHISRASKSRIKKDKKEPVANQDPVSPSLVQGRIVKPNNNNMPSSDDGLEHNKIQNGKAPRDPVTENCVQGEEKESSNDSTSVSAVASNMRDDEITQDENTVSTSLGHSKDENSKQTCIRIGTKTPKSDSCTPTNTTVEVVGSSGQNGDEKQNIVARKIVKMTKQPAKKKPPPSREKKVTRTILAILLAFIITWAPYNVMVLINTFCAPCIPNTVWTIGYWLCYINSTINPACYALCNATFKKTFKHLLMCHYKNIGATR
Described as above. The settings on record: remark: other sources report otherwise.

Assay [5] concerns the target T3, MAO-A (Rattus norvegicus (Rat)), P21396.
T3 chain: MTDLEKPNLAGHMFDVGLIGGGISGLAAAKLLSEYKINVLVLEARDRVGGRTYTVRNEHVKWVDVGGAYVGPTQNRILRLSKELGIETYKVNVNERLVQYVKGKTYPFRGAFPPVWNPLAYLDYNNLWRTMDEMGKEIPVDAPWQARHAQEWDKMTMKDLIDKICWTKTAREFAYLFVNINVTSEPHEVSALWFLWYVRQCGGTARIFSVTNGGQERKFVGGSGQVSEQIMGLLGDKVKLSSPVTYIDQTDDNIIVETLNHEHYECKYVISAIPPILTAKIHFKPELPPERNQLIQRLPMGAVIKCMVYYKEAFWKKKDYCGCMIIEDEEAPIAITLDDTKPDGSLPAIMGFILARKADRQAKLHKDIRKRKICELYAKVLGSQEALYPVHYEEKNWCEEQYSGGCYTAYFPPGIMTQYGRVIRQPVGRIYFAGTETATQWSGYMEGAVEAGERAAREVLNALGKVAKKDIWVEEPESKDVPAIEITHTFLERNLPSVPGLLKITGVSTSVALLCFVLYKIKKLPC
The assay is described as above.

The next assay addresses Na+ channel (site 2). The assay is described as above.
The target in assay [6] is T4, alpha 2A (h) (human), P08913.
T4 chain: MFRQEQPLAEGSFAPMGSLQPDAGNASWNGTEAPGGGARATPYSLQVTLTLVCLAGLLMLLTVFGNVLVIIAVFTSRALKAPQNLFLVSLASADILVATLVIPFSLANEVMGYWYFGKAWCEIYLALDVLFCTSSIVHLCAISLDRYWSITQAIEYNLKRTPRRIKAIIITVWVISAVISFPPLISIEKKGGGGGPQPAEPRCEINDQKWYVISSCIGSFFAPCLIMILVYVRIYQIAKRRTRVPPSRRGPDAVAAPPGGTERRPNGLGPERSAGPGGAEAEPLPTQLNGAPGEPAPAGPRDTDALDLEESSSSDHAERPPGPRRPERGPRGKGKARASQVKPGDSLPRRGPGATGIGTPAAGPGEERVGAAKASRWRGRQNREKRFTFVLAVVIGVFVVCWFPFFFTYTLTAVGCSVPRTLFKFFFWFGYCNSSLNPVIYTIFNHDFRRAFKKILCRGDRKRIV
Described as above. To be noted: remark: other sources report otherwise.

Assay [7] concerns the target norepinephrine transporter (h) (human), P23975. The description is as above. The settings on record: remark: other sources report otherwise.

Chain of norepinephrine transporter (h) (human), P23975 (P23975 whole entry): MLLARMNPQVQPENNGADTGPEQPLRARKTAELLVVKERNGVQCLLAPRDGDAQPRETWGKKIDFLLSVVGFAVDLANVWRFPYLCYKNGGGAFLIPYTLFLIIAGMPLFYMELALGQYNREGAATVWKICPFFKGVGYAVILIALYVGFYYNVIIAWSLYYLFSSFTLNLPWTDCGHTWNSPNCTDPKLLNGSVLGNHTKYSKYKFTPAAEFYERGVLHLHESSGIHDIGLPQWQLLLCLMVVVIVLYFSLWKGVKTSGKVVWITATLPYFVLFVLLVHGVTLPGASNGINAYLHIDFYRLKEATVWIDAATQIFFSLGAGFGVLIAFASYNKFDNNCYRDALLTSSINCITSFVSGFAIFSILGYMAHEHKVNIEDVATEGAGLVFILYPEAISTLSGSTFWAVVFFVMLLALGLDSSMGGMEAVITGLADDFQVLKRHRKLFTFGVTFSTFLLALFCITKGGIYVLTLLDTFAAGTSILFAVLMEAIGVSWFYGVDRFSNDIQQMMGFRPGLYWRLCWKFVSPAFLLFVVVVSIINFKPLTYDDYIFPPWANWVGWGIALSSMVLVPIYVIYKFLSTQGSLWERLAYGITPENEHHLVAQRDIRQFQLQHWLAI
Chain of 5-HT1B(h) (human), P28222 (P28222 whole entry): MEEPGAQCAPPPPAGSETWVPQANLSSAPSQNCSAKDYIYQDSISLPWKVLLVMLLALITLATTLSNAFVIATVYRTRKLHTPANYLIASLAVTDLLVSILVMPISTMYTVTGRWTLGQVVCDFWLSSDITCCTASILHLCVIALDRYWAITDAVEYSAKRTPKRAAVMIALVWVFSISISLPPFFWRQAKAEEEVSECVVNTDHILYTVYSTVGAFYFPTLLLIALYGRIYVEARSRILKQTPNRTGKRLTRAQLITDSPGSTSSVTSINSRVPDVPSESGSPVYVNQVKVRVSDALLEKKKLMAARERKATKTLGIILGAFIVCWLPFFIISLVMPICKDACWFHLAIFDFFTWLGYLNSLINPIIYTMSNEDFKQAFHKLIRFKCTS
Chain of 5-HT2B (h) (human), P41595 (P41595 whole entry): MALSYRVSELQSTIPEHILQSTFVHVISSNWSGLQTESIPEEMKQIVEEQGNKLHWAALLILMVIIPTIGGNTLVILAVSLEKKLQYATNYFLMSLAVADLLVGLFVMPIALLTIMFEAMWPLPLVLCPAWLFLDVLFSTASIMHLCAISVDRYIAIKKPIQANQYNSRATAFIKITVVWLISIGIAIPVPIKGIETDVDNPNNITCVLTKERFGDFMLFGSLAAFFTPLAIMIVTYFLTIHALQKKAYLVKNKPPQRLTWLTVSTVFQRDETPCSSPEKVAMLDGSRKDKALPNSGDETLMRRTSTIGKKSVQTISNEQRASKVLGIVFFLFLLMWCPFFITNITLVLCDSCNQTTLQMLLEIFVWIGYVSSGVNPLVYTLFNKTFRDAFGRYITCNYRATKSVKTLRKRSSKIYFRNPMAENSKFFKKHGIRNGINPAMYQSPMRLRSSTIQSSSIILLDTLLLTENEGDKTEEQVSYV
Chain of H2 (h) (human), P25021 (P25021 whole entry): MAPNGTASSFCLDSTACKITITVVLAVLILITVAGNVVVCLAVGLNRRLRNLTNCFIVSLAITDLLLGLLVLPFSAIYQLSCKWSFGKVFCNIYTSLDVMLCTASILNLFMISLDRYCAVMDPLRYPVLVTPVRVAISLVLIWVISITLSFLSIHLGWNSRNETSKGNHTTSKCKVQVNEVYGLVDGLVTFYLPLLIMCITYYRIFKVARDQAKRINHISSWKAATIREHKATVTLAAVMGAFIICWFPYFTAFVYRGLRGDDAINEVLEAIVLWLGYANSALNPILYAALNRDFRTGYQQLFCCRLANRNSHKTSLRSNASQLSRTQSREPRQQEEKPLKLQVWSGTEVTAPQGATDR

B1: Hex-[Cys(tMeBn(DOTA-PP))-Pro-Pro-Thr-Gln-Phe-Cys]-Asp-NH2 (peptide)
peptide: Hex-CPPTQFCD-NH2
modifications: bridge 1-7; not fully specified (bridges); printed as Hex-[Cys(tMeBn(DOTA-PP))-Pro-Pro-Thr-Gln-Phe-Cys]-Asp-NH2
In the case of B1, the % Inhibition of Specific Binding is 2% in assay [1]; -9% in the assay with BZD (central); 24% in assay [2]; 16% with V1a (h) (human), P37288; -11% in assay [3]; 42% in assay [4]. Also, the % Inhibition of Specific Binding in the assay with H2 (h) (human), P25021 was -5%; with KV channel, -5%; with M2 (h) (human), P08172, -4%; in [5] it was -5%; with Na+ channel (site 2) it was -7%; in [6], -9%. Further, the % Inhibition of Specific Binding in assay [7] was -8%.

B2: Hex-[Cys(tMeBn(DOTA-AET))-Pro-Pro-Thr-Gln-Phe-Cys]-OH (peptide)
peptide: Hex-CPPTQFC-OH
modifications: bridge 1-7; not fully specified (bridges); printed as Hex-[Cys(tMeBn(DOTA-AET))-Pro-Pro-Thr-Gln-Phe-Cys]-OH
With B2, the % Inhibition of Specific Binding is 3% in assay [1]; 5% in the assay with BZD (central); 16% in assay [2]; 1% with V1a (h) (human), P37288; 8% in assay [3]; 54% in [4]. Moreover, the % Inhibition of Specific Binding in the assay with H2 (h) (human), P25021 is -16%; with KV channel it was 4%; in the assay with M2 (h) (human), P08172, 7%; in [5], -25%; in the assay with Na+ channel (site 2), 14%; in assay [6], 2%. In assay [7], the % Inhibition of Specific Binding was -5%.
